Results published in the supplement of paper PMC10201428.
± gives the standard deviation of the averaged measurements.

B1: library; a variant is named by its letters at N, in order (parent)
chain: ACATTTGTTGATACAACCATAAAATGATAATTACACCCATAAATTGATAATTATCACACCCANNNNNNNNNNNNNNCTCTGATCATAGTCAGACCAACATTGCTACGACCCGTATTCGCACCGACAC

Assays:
[1] = variants of: B1; test: relative integration efficiency (T-RL orientation) vs wild-type transposon end (log2 (normalized fold change)); transposon end mutated: right end (5 bp flank + 75 bp right end); higher = more efficient transposition; conditions: with VchCAST RNA-guided transposition machinery (E. coli BL21(DE3) host, lacZ target)
Description: (§1)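 Pooled, barcoded VchCAST (Tn6677) mini-transposon donor libraries; each variable transposon-end sequence sits in a fixed pDonor mini-transposon context (10-bp barcode and cargo not included). Left- or right-end libraries were co-transformed with pEffector (TniQ-Cascade, TnsABC, lacZ crRNA, T7, 0.1 mM IPTG) into E. coli BL21(DE3) and grown 18 h at 37 C. T-LR and T-RL junction amplicons were sequenced; output/input barcode fold change was normalised to the mean of four wild-type barcodes and log2-transformed. Two biological replicates; zero-count/undetected variants carry floor values (-10 / -15), censored here. Barcode uncoupling by PCR recombination adds noise.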

[2] = variants of: B1; test: relative integration efficiency (T-LR orientation) vs wild-type transposon end (log2 (normalized fold change)); transposon end mutated: right end (5 bp flank + 75 bp right end); higher = more efficient transposition; conditions: with VchCAST RNA-guided transposition machinery (E. coli BL21(DE3) host, lacZ target)
Description: as §1

Row | Variant | relative integration efficiency (log2) [1] | relative integration efficiency (log2) [2]
1 | TACCTTGAAATTGC C59A | -1.62 ± 0.24 | 1.94 ± 0.21
2 | ATTTAACTATAACG G7C | -1.39 ± 0.16 | 1.24 ± 0.17
3 | ATTTAACTATAACG T32G | -1.87 ± 0.28 | 2.2 ± 0.18
4 | ATTTAACTATAACG T32A | -1.5 ± 0.28 | 2.13 ± 0.036
5 | TAAAGTGATATTTA C59A | -0.094 ± 0.095 | -0.17 ± 0.3
6 | TAAATTGATTAACC | -0.157 ± 0.13 | 1.35 ± 0.077
7 | ATTTAACTATAACG A42C | -1.82 ± 0.3 | 1.03 ± 0.13
8 | TAAATTGATATTGC C59G | -0.141 ± 0.043 | 0.747 ± 0.024
9 | TAAATTGATATTGC C59T | -0.0651 ± 0.0017 | 0.538 ± 0.076
10 | ATTTAACTATAACG G26T | -1.75 ± 0.32 | 2.24 ± 0.073
11 | ATTTAACTATAACG G26A | -1.27 ± 0.28 | 2.69 ± 0.084
12 | TAAATTGATATTGC C60T | -0.182 ± 0.028 | 0.2 ± 0.2
13 | TAAATTGATATTGC C60A | -0.462 ± 0.027 | 1.55 ± 0.14
14 | TAAATTGATATTGC A53C | -0.408 ± 0.19 | 0.07 ± 0.052
15 | TAAATTGATATTGC A53T | -0.33 ± 0.038 | -0.318 ± 0.48
16 | TAAATTGATATTGA | 0.138 ± 0.028 | 0.0994 ± 0.1
17 | TAAATTGATATTGC A30T | -0.464 ± 0.16 | -0.0553 ± 0.55
18 | ATTTAACTATAACG A23G | -0.928 ± 0.18 | 2.07 ± 0.26
19 | TAAACTGATATTGC | -0.0927 ± 0.037 | 0.318 ± 0.14
20 | TAAATTGAGATTGC | -0.3392 ± 0.00035 | 0.765 ± 0.23
21 | TAAATTGATATTGC T78C | -0.00404 ± 0.024 | -0.0349 ± 0.43
22 | TAAATTGATATTGC T78G | 0.0385 ± 0.031 | 0.078 ± 0.44
23 | TAAATTGATATTGC A1G | -0.139 ± 0.068 | -0.251 ± 0.32
24 | TAAATTGATATTGC A50T | -0.455 ± 0.22 | -0.0702 ± 0.025
25 | TAAATTGATATTGC A50G | -0.0471 ± 0.15 | 0.0313 ± 0.15
26 | ATTTAACTATAACG A49T | -1.3 ± 0.35 | 2.31 ± 0.04

Row | Variant | relative integration efficiency (log2) [1] | relative integration efficiency (log2) [2]
27 | ATTTAACTATAACG A29C | -1.83 ± 0.43 | 1.8 ± 0.15
28 | ATTTAACTATAACG A29T | -1.09 ± 0.32 | 2.6 ± 0.24
29 | ATTTAACTATAACG A47C | -0.686 ± 0.38 | 2.63 ± 0.064
30 | ATTTAACTATAACG A47G | -0.679 ± 0.11 | 2.25 ± 0.039
31 | TAAATTGATATTGC A58G | -0.236 ± 0.0068 | 1.32 ± 0.19
32 | TAAATTGATATTGC A58C | -0.461 ± 0.11 | 1.05 ± 0.17
33 | TAAAATGATATTGC | 0.0615 ± 0.025 | 0.274 ± 0.058
34 | TAAATTCTATTTGC | -0.619 ± 0.18 | 2.22 ± 0.053
35 | TAAATTGATATTGC A21T | 0.0476 ± 0.12 | -0.217 ± 0.052
36 | TTTTATGATATTGC | -0.0751 ± 0.044 | 0.744 ± 0.14
37 | TAAATTGATATTGC T4A | -0.153 ± 0.014 | -0.113 ± 0.32
38 | TAAATTGATATTGC T4C | -0.0535 ± 0.0038 | -0.0603 ± 0.29
39 | TAAATTGATATTGC A19C | -1.18 ± 0.12 | -1.16 ± 0.11
40 | TAAATTGATATTGC A47T | -0.574 ± 0.2 | -0.552 ± 0.16
41 | TAAATTGATATTGC A47G | -0.0921 ± 0.17 | -0.453 ± 0.42
42 | TAAATTGATATTCC | -0.154 ± 0.11 | -0.146 ± 0.21
43 | ATTTAACTATAACG T40A | -1.01 ± 0.19 | 1.82 ± 0.13
44 | TAAATTCTTATTGC | -0.485 ± 0.094 | 2.36 ± 0.24
45 | TAAATTGATCGTGC | -0.217 ± 0.047 | 0.973 ± 0.038
46 | TAAATTGATATTGC T28C | -0.278 ± 0.096 | -0.203 ± 0.2
47 | TAAATTGATATTGC T28G | -0.476 ± 0.036 | 0.189 ± 0.11
48 | TAAATTGCTATTGC | -0.207 ± 0.014 | 0.841 ± 0.12
49 | TAAATTGTTATTGC | -0.347 ± 0.057 | 1.61 ± 0.16
50 | ATTTAACTATAACG G46C | -1.79 ± 0.26 | 1.05 ± 0.12
51 | ATTTAACTATAACG C57G | -0.953 ± 0.42 | 2.5 ± 0.16
